The source of these data is patent US11491212.

The chains are these.
B1: FIXa K247N/N249S/R318Y/R338E/T343R/E410N (protein)
chain 1: not shown
chain 2: not shown
B2: FIXa K247N/N249S/R318Y/T343R/R403E/E410N (protein)
chain 1: not shown
chain 2: not shown
B3: FIXa Y155F/K247N/N249S/R338E/E410N (protein)
chain 1: not shown
chain 2: not shown
B4: FIXa Y155F/K247N/N249S/R318Y/T343R/R403E/E410N (protein)
chain 1: not shown
chain 2: not shown
B5: FIXa-D104N/K106S/K247N/N249S/R318Y/R338E/R403E/E410N (protein)
chain 1: not shown
chain 2: not shown
B6: FIXa-D104N/K106S/I251S/R318Y/R338E/R403E/E410N (protein)
chain 1: not shown
chain 2: not shown
B7: FIXa-Y155F/I251S/R318Y/R338E/R403E/E410N (protein)
chain 1: not shown
chain 2: not shown
B8: FIXa-K247N/N249S/R318Y/R338E/R403E/E410N (protein)
chain 1: not shown
chain 2: not shown
B9: FIXa-R318Y/R338E/E410S (protein)
chain 1: not shown
chain 2: not shown
B10: FIXa-I251S/R318Y/R338E/R403E/E410N (protein)
chain 1: not shown
chain 2: not shown
B11: FIXa-K247N/N249S/R318Y/R338E/E410N (protein)
chain 1: not shown
chain 2: not shown
B12: FIXa-D104N/K106S/I251S/R318Y/R338E/E410N (protein)
chain 1: not shown
chain 2: not shown
B13: FIXa-D104N/K106S/Y155F/K228N/K247N/N249S (protein)
chain 1: not shown
chain 2: not shown

The target of the first series is Factor X, P00742.
Factor X, P00742, sequence (P00742 whole entry, looked up): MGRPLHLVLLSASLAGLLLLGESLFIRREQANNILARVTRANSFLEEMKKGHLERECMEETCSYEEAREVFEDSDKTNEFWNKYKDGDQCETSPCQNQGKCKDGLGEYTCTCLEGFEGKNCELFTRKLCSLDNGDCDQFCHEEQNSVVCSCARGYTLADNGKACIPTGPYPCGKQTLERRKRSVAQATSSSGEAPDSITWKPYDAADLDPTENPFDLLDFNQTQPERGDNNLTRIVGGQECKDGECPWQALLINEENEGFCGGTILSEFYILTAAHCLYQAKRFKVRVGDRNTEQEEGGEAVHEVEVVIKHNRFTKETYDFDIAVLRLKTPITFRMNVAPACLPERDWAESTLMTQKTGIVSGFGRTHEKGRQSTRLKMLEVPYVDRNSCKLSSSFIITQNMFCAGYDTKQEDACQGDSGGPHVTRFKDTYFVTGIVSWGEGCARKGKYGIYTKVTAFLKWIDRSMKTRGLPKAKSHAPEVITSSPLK
What is called kcat/KM is the turnover number divided by the Michaelis constant. Turning to B1, the “% of WT kcat/KM” value was found to be 687% and the kcat/KM was 3.2e+08 M⁻¹ s⁻¹.
As to B2, the “% of WT kcat/KM” value worked out at 279% and the kcat/KM came out at 1.3e+08 M⁻¹ s⁻¹.
Take B3: the “% of WT kcat/KM” value is listed as 1009% and the kcat/KM was 4.7e+08 M⁻¹ s⁻¹.
On the same counts, the results for B4 are 350% and 1.6e+08 M⁻¹ s⁻¹.

The target in a further series is Factor X (FX), P00742.
Factor X (FX), P00742, sequence (P00742 whole entry, looked up): as above
With B5, the “% of WT kcat/KM (against Catalyst Biosciences WT FIXa)” value came out at 192% and the kcat/KM for activation of FX by FIXa in the Xase complex (FVIIIa, PC/PS vesicles, Ca2+), fluorogenic Spectrafluor FXa read-out amounted to 8.8e+07 M⁻¹ s⁻¹.
On the same counts, the results for B6 are 263% and 1.2e+08 M⁻¹ s⁻¹.
B7: the “% of WT kcat/KM (against Catalyst Biosciences WT FIXa)” value was determined as 363% and the kcat/KM for activation of FX by FIXa in the Xase complex (FVIIIa, PC/PS vesicles, Ca2+), fluorogenic Spectrafluor FXa read-out amounted to 1.7e+08 M⁻¹ s⁻¹.
In the case of B8, the “% of WT kcat/KM (against Catalyst Biosciences WT FIXa)” value stood at 331% and the kcat/KM for activation of FX by FIXa in the Xase complex (FVIIIa, PC/PS vesicles, Ca2+), fluorogenic Spectrafluor FXa read-out worked out at 1.5e+08 M⁻¹ s⁻¹.
For B9, the “% of WT kcat/KM (against Catalyst Biosciences WT FIXa)” value is reported as 708% and the kcat/KM for activation of FX by FIXa in the Xase complex (FVIIIa, PC/PS vesicles, Ca2+), fluorogenic Spectrafluor FXa read-out stood at 3.3e+08 M⁻¹ s⁻¹.
On the same counts, the results for B10 are 334% and 1.5e+08 M⁻¹ s⁻¹.
Take B11: the “% of WT kcat/KM (against Catalyst Biosciences WT FIXa)” value was 501% and the kcat/KM for activation of FX by FIXa in the Xase complex (FVIIIa, PC/PS vesicles, Ca2+), fluorogenic Spectrafluor FXa read-out came to 2.3e+08 M⁻¹ s⁻¹.
For the protein B12, the “% of WT kcat/KM (against Catalyst Biosciences WT FIXa)” value stood at 291% and the kcat/KM for activation of FX by FIXa in the Xase complex (FVIIIa, PC/PS vesicles, Ca2+), fluorogenic Spectrafluor FXa read-out is 1.3e+08 M⁻¹ s⁻¹.
On the same counts, the results for B13 are 137% and 6.3e+07 M⁻¹ s⁻¹.
